± gives the uncertainty stated by the source.
B1: Nanos homolog 2, residues 63 to 115; numbered along this chain, P60321 (parent)
chain: CNFCKHNGESRHVYSSHQLKTPDGVVVCPILRHYVCPVCGATGDQAHTLKYCP

Variants of: B1
Assay: abundance fitness (aPCA) (normalised: wild type 0, dead -1); higher = more abundant; growth selection in yeast, the domain comes from the species named
Settings: Homo sapiens

L31Q and L31E are within error of each other in abundance fitness: -0.349 ± 0.097 for the first, -0.339 ± 0.078 for the second.

L31N and L31D are within error of each other in abundance fitness: -0.547 ± 0.18 for the first, -0.622 ± 0.23 for the second.

L31H and V25M are within error of each other in abundance fitness: -0.271 ± 0.15 for the first, -0.051 ± 0.12 for the second.

Going from V25W to V25K, the abundance fitness rises from -0.459 ± 0.13 to 0.085 ± 0.083.

V25Y and V25N are within error of each other in abundance fitness: -0.092 ± 0.096 for the first, 0.08 ± 0.097 for the second.

V25C and V25D are within error of each other in abundance fitness: -0.001 ± 0.089 for the first, -0.148 ± 0.1 for the second.

I30H and I30G are within error of each other in abundance fitness: 0.041 ± 0.2 for the first, -0.081 ± 0.065 for the second.

I30N and I30S are within error of each other in abundance fitness: 0.039 ± 0.18 for the first, 0.082 ± 0.06 for the second.

Going from I30F to I30A, the abundance fitness rises from -0.524 ± 0.2 to 0.084 ± 0.1.

I30W and I30E are within error of each other in abundance fitness: -0.346 ± 0.11 for the first, -0.108 ± 0.13 for the second.

D44S and D44T are within error of each other in abundance fitness: -0.294 ± 0.097 for the first, -0.14 ± 0.075 for the second.

D44P and D44C are within error of each other in abundance fitness: -0.274 ± 0.1 for the first, -0.391 ± 0.12 for the second.

D44Y and R32E are within error of each other in abundance fitness: -0.55 ± 0.14 for the first, -0.49 ± 0.11 for the second.

First: R32S
Second: R32W
The abundance fitness of the first is higher: -0.225 ± 0.09 for the first, -0.419 ± 0.1 for the second.

R32N and R32Q are within error of each other in abundance fitness: -0.522 ± 0.19 for the first, -0.446 ± 0.13 for the second.

R32V and R32G are within error of each other in abundance fitness: -0.473 ± 0.06 for the first, -0.352 ± 0.069 for the second.

Going from R32L to R32M, the abundance fitness rises from -0.427 ± 0.09 to -0.18 ± 0.11.

R32F and R32D are within error of each other in abundance fitness: -0.514 ± 0.17 for the first, -0.376 ± 0.14 for the second.

R32I and G24S are within error of each other in abundance fitness: -0.434 ± 0.064 for the first, -0.311 ± 0.092 for the second.

Going from G24I to G24K, the abundance fitness rises from -0.983 ± 0.47 to -0.353 ± 0.094.

First: G24C
Second: G24V
The abundance fitness of the first is higher: -0.496 ± 0.19 for the first, -0.882 ± 0.081 for the second.

Going from G24N to G24F, the abundance fitness falls from 0.113 ± 0.21 to -1.02 ± 0.26.

T42D and T42S are within error of each other in abundance fitness: -0.24 ± 0.12 for the first, -0.116 ± 0.067 for the second.

T42M and T42Q are within error of each other in abundance fitness: -0.153 ± 0.13 for the first, -0.023 ± 0.11 for the second.

L19C and L19N are within error of each other in abundance fitness: -0.093 ± 0.15 for the first, -0.277 ± 0.42 for the second.

Compared with L19G, V13S is higher in abundance fitness: -0.292 ± 0.1 for the first, -0.008 ± 0.069 for the second.

V13W and V13Y are within error of each other in abundance fitness: -0.04 ± 0.11 for the first, -0.125 ± 0.11 for the second.

V13D and V13T are within error of each other in abundance fitness: -0.013 ± 0.13 for the first, 0.157 ± 0.085 for the second.

V13H and V13R are within error of each other in abundance fitness: -0.087 ± 0.22 for the first, -0.06 ± 0.065 for the second.

K20D and K20S are within error of each other in abundance fitness: -0.118 ± 0.18 for the first, -0.168 ± 0.081 for the second.

K20N and K20P are within error of each other in abundance fitness: -0.388 ± 0.16 for the first, -0.561 ± 0.097 for the second.

K20A and K20H are within error of each other in abundance fitness: -0.111 ± 0.057 for the first, -0.101 ± 0.077 for the second.

K20G and K20W are within error of each other in abundance fitness: -0.523 ± 0.12 for the first, -0.569 ± 0.11 for the second.

First: K20T
Second: K20E
The abundance fitness of the first is higher: -0.118 ± 0.1 for the first, -0.47 ± 0.2 for the second.

H12M and H12K are within error of each other in abundance fitness: -0.012 ± 0.078 for the first, 0.096 ± 0.14 for the second.

H12Q and H12W are within error of each other in abundance fitness: -0.013 ± 0.11 for the first, -0.148 ± 0.14 for the second.

H12I and H12L are within error of each other in abundance fitness: -0.043 ± 0.16 for the first, -0.036 ± 0.11 for the second.

Compared with H12R, P53G is lower in abundance fitness: -0.049 ± 0.059 for the first, -0.359 ± 0.16 for the second.

G8D and G8L are within error of each other in abundance fitness: -0.223 ± 0.096 for the first, -0.23 ± 0.065 for the second.

G8P and G8F are within error of each other in abundance fitness: -0.343 ± 0.1 for the first, -0.202 ± 0.12 for the second.

Going from G8V to G8Q, the abundance fitness rises from -0.306 ± 0.085 to -0.084 ± 0.098.

Going from G8N to H17L, the abundance fitness falls from -0.161 ± 0.11 to -0.756 ± 0.093.

H17K and H17T are within error of each other in abundance fitness: -0.6 ± 0.15 for the first, -0.442 ± 0.082 for the second.

H17A and H17G are within error of each other in abundance fitness: -0.626 ± 0.13 for the first, -0.618 ± 0.073 for the second.

First: L49W
Second: L49R
The abundance fitness of the first is lower: -0.021 ± 0.13 for the first, 0.185 ± 0.065 for the second.

L49H and L49Y are within error of each other in abundance fitness: 0.169 ± 0.18 for the first, 0.057 ± 0.15 for the second.

L49P and L49E are within error of each other in abundance fitness: 0.026 ± 0.12 for the first, -0.095 ± 0.11 for the second.

L49N and L49I are within error of each other in abundance fitness: -0.013 ± 0.14 for the first, 0.251 ± 0.16 for the second.

Going from P29D to P29E, the abundance fitness rises from -0.543 ± 0.15 to -0.195 ± 0.14.

P29M and P29C are within error of each other in abundance fitness: -1.05 ± 0.16 for the first, -1.07 ± 0.12 for the second.

P29Y and P29K are within error of each other in abundance fitness: -0.721 ± 0.29 for the first, -0.364 ± 0.074 for the second.

A41T and A41Q are within error of each other in abundance fitness: -0.089 ± 0.099 for the first, 0.023 ± 0.14 for the second.

First: A41P
Second: A41R
The abundance fitness of the first is lower: -0.593 ± 0.11 for the first, -0.251 ± 0.091 for the second.

Compared with A41W, A41C is higher in abundance fitness: -0.383 ± 0.14 for the first, 0.014 ± 0.1 for the second.

Going from S15Q to S15T, the abundance fitness falls from 0.034 ± 0.11 to -0.595 ± 0.072.

Compared with S15C, Q18N is higher in abundance fitness: -0.158 ± 0.13 for the first, 0.097 ± 0.12 for the second.

Q18I and Q18Y are within error of each other in abundance fitness: -0.259 ± 0.15 for the first, -0.149 ± 0.14 for the second.

Q18D and Q18L are within error of each other in abundance fitness: 0.101 ± 0.13 for the first, -0.033 ± 0.072 for the second.

First: Q18V
Second: Q18G
The abundance fitness of the first is higher: 0.065 ± 0.056 for the first, -0.089 ± 0.068 for the second.

P22Y and P22A are within error of each other in abundance fitness: -0.121 ± 0.086 for the first, -0.048 ± 0.09 for the second.

P22W and P22M are within error of each other in abundance fitness: -0.321 ± 0.17 for the first, -0.129 ± 0.076 for the second.

P22D and P22R are within error of each other in abundance fitness: -0.112 ± 0.1 for the first, -0.079 ± 0.075 for the second.

First: C28E
Second: C28S
The abundance fitness of the first is lower: -0.733 ± 0.13 for the first, -0.501 ± 0.085 for the second.

C28W and C28F are within error of each other in abundance fitness: -1.03 ± 0.26 for the first, -0.91 ± 0.18 for the second.

C28P and C28M are within error of each other in abundance fitness: -0.664 ± 0.18 for the first, -0.524 ± 0.11 for the second.

First: C28V
Second: Y51R
The abundance fitness of the first is lower: -0.852 ± 0.17 for the first, -0.258 ± 0.05 for the second.

Y51Q and Y51G are within error of each other in abundance fitness: -0.163 ± 0.11 for the first, -0.193 ± 0.073 for the second.

First: Y51V
Second: F3S
The abundance fitness of the first is higher: -0.071 ± 0.067 for the first, -0.623 ± 0.047 for the second.

F3M and F3V are within error of each other in abundance fitness: -1.06 ± 0.21 for the first, -1.01 ± 0.1 for the second.

First: F3W
Second: H33M
The abundance fitness of the first is lower: -0.709 ± 0.13 for the first, -0.028 ± 0.09 for the second.

H33T and H33A are within error of each other in abundance fitness: 0.068 ± 0.1 for the first, 0.046 ± 0.075 for the second.

Going from H33N to H6P, the abundance fitness falls from 0.218 ± 0.093 to -0.277 ± 0.12.

H6Q and H6I are within error of each other in abundance fitness: 0.011 ± 0.12 for the first, -0.062 ± 0.081 for the second.

H6F and H6D are within error of each other in abundance fitness: -0.147 ± 0.11 for the first, -0.093 ± 0.1 for the second.

Compared with H6C, H47W is lower in abundance fitness: -0.099 ± 0.11 for the first, -0.781 ± 0.083 for the second.

H47L and H47Q are within error of each other in abundance fitness: -0.735 ± 0.11 for the first, -0.739 ± 0.34 for the second.

H47A and H47D are within error of each other in abundance fitness: -0.431 ± 0.11 for the first, -0.463 ± 0.13 for the second.

Going from H47Y to S16A, the abundance fitness rises from -0.621 ± 0.23 to -0.117 ± 0.063.

First: S16M
Second: S16F
The abundance fitness of the first is higher: -0.047 ± 0.1 for the first, -0.594 ± 0.14 for the second.

Compared with S16R, S16I is lower in abundance fitness: -0.135 ± 0.067 for the first, -0.406 ± 0.17 for the second.

First: S16T
Second: S16G
The abundance fitness of the first is lower: -0.335 ± 0.12 for the first, -0.035 ± 0.073 for the second.

Q45T and Q45I are within error of each other in abundance fitness: -0.074 ± 0.11 for the first, -0.214 ± 0.14 for the second.

Q45A and Q45Y are within error of each other in abundance fitness: -0.069 ± 0.077 for the first, -0.168 ± 0.1 for the second.

With Q45C the abundance fitness was -0.186 ± 0.19.
